Test results as given in patent US20100119588A1.
Where two headings read alike, the source gives them in different places.

Experiments:
[1] = biological target: hemagglutinin H1 on influenza virus A/Puerto Rico/8/34 strain (H1N1) (influenza virus A/Puerto Rico/8/34 (H1N1)) (UniProt P03452); assay: cell-based or functional assay
[2] = biological target: hemagglutinin H1 on influenza virus A/Puerto Rico/8/34 strain (H1N1) (influenza virus A/Puerto Rico/8/34 (H1N1)) (UniProt P03452); assay: cell-based or functional assay; remark: listed apart in the source

C18-s2(1-2) (C18-AR peptide amide)
IC50(µM), plaque assay, infection of MDCK cells [1]: > 100 µM

C18-s2(1-3) (C18-ARL peptide amide)
IC50(µM), plaque assay, infection of MDCK cells [1]: > 100 µM

C18-s2(1-4) (C18-ARLP peptide amide)
IC50(µM), plaque assay, infection of MDCK cells [1]: 0.9 µM

C18-s2(1-5) (C18-ARLPR peptide amide)
IC50(µM), plaque assay, infection of MDCK cells [2]: 0.35 µM
IC50(µM), plaque assay, infection of MDCK cells [1]: 3.1 µM

C18-s2(1-6) (C18-ARLPRT peptide amide)
IC50(µM), plaque assay, infection of MDCK cells [1]: 3.5 µM

C18-s2(1-7) (C18-ARLPRTM peptide amide)
IC50(µM), plaque assay, infection of MDCK cells [1]: 7.1 µM

C18-s2(1-8) (C18-ARLPRTMV peptide amide)
IC50(µM), plaque assay, infection of MDCK cells [2]: 2.4 µM

C18-s2(2-8) (C18-RLPRTMV peptide amide)
IC50(µM), plaque assay, infection of MDCK cells [1]: 9.2 µM

C18-s2(3-8) (C18-LPRTMV peptide amide)
IC50(µM), plaque assay, infection of MDCK cells [1]: > 100 µM

C18-s2(4-8) (C18-PRTMV peptide amide)
IC50(µM), plaque assay, infection of MDCK cells [1]: > 100 µM

C18-s2(5-11) (C18-RTMVHPK peptide amide)
IC50(µM), plaque assay, infection of MDCK cells [1]: 11 µM

C18-s2(8-15) (C18-VHPKPAQP peptide amide)
IC50(µM), plaque assay, infection of MDCK cells [1]: 59 µM

C18-s2(r1-4) (C18-PLRA peptide amide)
IC50(µM), plaque assay, infection of MDCK cells [2]: 0.41 µM

C18-s2(r1-5) (C18-RPLRA peptide amide)
IC50(µM), plaque assay, infection of MDCK cells [2]: 0.55 µM

C18-s2(r1-8) (C18-VMTRPLRA peptide amide)
IC50(µM), plaque assay, infection of MDCK cells [1]: 93 µM
